Reference: patent US5126322A, “Pancreatic secretory tryspin inhibitor and variants thereof produced by a recombinant host therefore and pharmaceutical use thereof” (Bayer Aktiengesellschaft, priority 1987, dated 1992)

Experiments:
Assay type in all cases: biochemical
α-Chymotrypsin (bovine) = target: T1, α-Chymotrypsin (bovine) (Bos taurus, UniProt P00766); experiment: Enzyme inhibition assay, α-chymotrypsin, release of p-nitroaniline from Suc-Ala-Ala-Pro-Phe-pNA; conditions: 50 ng enzyme/assay
T1 construct: purchased E. Merck, Darmstadt
Procedure: Bovine α-chymotrypsin (CHT) was obtained from E. Merck, Darmstadt.
(§1) The substrates: MeOSuc-Ala-Ala-Pro-Val-pNA (HLE), Ac-Ala-Ala-Pro-Ala-pNA and Suc-Ala-Ala-Ala-pNA (PPE and Suc-Ala-Ala-Pro-Phe-pNA (CHT) were obtained from Bachem, Bubendorf/Switzerland.
(§2) Culture filtrates were treated as follows: 10 μl TWEEN 80 solution (0.5%) and 50 μl perchloric acid (70%) were added to 1 ml of culture filtrate. After 20 min, these samples were centrifuged, and the clear supernatants were neutralized by the addition of 225 μl saturated solution of tris base. Aliquots of these solutions were taken to determine inhibitory activities.
(§3) Generally, the samples were diluted with the appropriate buffer volume, and the enzyme was added. After the preincubation time, substrate was added (substrates are dissolved in DMSO in a concentration of 0.1M and diluted with buffer to give the concentration of the stock solution). The release of p-nitroaniline from the substrates was measured at 405 nm either continuously or after quenching the reaction by adding acetic acid. 100%- values were determined by running samples where inhibitors were omitted. Percentage inhibition was calculated using the formula: [formula] […]

[1] = target: T2, Granulocytic Elastase (human) (Homo sapiens, UniProt P08246); experiment: Enzyme inhibition assay, leukocyte (granulocytic) elastase, release of p-nitroaniline from MeOSuc-Ala-Ala-Pro-Val-pNA; conditions: 120 ng enzyme/assay
T2 construct: purchased Elastin Products Company, Inc
T2 sequence (P08246 30-267): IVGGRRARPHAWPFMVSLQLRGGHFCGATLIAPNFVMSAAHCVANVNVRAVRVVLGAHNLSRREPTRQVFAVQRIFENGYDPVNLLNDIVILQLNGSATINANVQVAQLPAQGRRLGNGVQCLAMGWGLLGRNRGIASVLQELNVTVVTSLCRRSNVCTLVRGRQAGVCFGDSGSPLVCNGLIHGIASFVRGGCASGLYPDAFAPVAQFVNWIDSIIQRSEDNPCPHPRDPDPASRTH
Procedure: (§4) Human leukocyte elastase (HLE) and porcine pancreas elastase (PPE) were obtained from Elastin Products Company, Inc. P.O. Box 147, Pacific, Miss. 63069/USA.
as §1, §2, §3

[2] = target: T3, Pancreatic Elastase (porcine) (Sus scrofa, UniProt P00772); experiment: Enzyme inhibition assay, pancreatic elastase, release of p-nitroaniline from Ac-Ala-Ala-Pro-Ala-pNA; conditions: 500 ng enzyme/assay
T3 construct: purchased Elastin Products Company, Inc
T3 sequence (P00772 27-266): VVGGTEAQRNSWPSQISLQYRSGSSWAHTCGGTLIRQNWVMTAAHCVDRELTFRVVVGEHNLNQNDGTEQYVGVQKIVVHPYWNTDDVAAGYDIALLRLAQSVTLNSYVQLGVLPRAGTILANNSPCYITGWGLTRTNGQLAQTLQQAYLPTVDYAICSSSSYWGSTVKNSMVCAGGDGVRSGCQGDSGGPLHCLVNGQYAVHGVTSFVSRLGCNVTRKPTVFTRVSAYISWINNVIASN
Procedure: as §4, §1, §2, §3

Substance | amount of inhibitor giving 50% inhibition, α-Chymotrypsin (bovine) (α-Chymotrypsin (bovine)) | amount of inhibitor giving 50% inhibition, Granulocytic Elastase (human) [1] | amount of inhibitor giving 50% inhibition, Pancreatic Elastase (porcine) [2]
Asn^-13 -Ala^-12 -Glu^-11 -Thr^-10 -Ala^-9 -His^-8 -Lys^-7 -Ser^-6 -Asn^-5 -Glu^-4 -Val^-3 -Thr^-2 -Met^-1 -Leu^18 -Glu^19 -Arg^21 -Ala^32 -PSTI ({Asn-Ala-Glu-Thr-Ala-H2N}-KSNEVTMDSLGREAKCYNELNGCTLEYRPVCGTDGNTYANECVLCFENRKRQTSILIQKSGPC; ends and bridges not checked; UniProt P00995 24-79, looked up, variant K18L I19E D21R P32A) [PSTI-4A [Minifusion]] | 6 ng | 15 ng | 68 ng
Leu^18 -Ala^32 -PSTI (DSLGREAKCYNELNGCTLIYDPVCGTDGNTYANECVLCFENRKRQTSILIQKSGPC; UniProt P00995 24-79, looked up, variant K18L P32A) [PSTI-1A, PSTI variant from cyanogen bromide cleavage of the PSTI-1A minifusion protein] | 100 ng | 18 ng | 1200 ng
Leu^18 -Glu^19 -Arg^21 -Ala^32 -PSTI (DSLGREAKCYNELNGCTLEYRPVCGTDGNTYANECVLCFENRKRQTSILIQKSGPC; UniProt P00995 24-79, looked up, variant K18L I19E D21R P32A) [PSTI-4A, PSTI variant obtained from the minifusion protein by BrCN-cleavage] | 7 ng | 17 ng | 75 ng
Met^-1 -Leu^18 -Glu^19 -Arg^21 -Ala^32 -PSTI (DSLGREAKCYNELNGCTLEYRPVCGTDGNTYANECVLCFENRKRQTSILIQKSGPC; N-terminal Met; UniProt P00995 24-79, looked up, variant K18L I19E D21R P32A) [Met-PSTI-4A] | 8 ng | 16 ng | 73 ng
Tyr^18 -Glu^19 -Arg^21 -PSTI (DSLGREAKCYNELNGCTYEYRPVCGTDGNTYPNECVLCFENRKRQTSILIQKSGPC; UniProt P00995 24-79, looked up, variant K18Y I19E D21R) [PSTI-3P] | 7 ng | > 5000 ng | 
Val^18 -Glu^19 -Arg^21 -PSTI (DSLGREAKCYNELNGCTVEYRPVCGTDGNTYPNECVLCFENRKRQTSILIQKSGPC; UniProt P00995 24-79, looked up, variant K18V I19E D21R) [PSTI-5P] | 100 ng | 15 ng | 70 ng
